Experimental data as given in PMC12207370, “Macrocyclic Peptide Probes for Immunomodulatory Protein CD59: Potent Modulators of Bacterial Toxin Activity and Antibody‐Dependent Cytotoxicity” (Angewandte Chemie (International Ed. in English), 2025).

Target: T1, biotinylated CD59 (Homo sapiens, UniProt P13987)
T1 construct: Recombinant soluble human CD59 with an additional C-terminal cysteine residue
T1 sequence (P13987 26-102 limits assumed): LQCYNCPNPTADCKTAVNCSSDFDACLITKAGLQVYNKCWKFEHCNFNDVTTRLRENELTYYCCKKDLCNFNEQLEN
Test: mRNA-display cyclic peptide screen against CD59-biotin, NGS abundance after 6th selection round
Conditions: for Counts (raw counts for peptide sequence), Seq I: NGS sample Seq I; for Counts (raw counts for peptide sequence), Seq I / Counts (raw counts for peptide sequence), Seq II / Counts Seq I / Counts Seq II: sheet R6 (6th selection round); for Counts (raw counts for peptide sequence), Seq II: NGS sample Seq II; for Percentage of the pool, averaged across the two sequencing samples: average of Seq I and Seq II; for Percentage of the pool, averaged across the two sequencing samples / Percentage of the pool, Seq I / Percentage of the pool, Seq II / Percentage Seq I / Percentage Seq II / Percentage Average: sheet R6; for Percentage of the pool, Seq I: counts normalised by total counts of NGS sample Seq I; for Percentage of the pool, Seq II: counts normalised by total counts of NGS sample Seq II; for Percentage Seq I: counts normalised by total counts of sample Seq I; for Percentage Seq I / Percentage Seq II: percentage of the pool; for Percentage Seq II: counts normalised by total counts of sample Seq II; for Percentage Average: percentage of the pool averaged across the two sequencing samples; for Counts Seq I / Counts Seq II: raw NGS counts of peptide sequence; for Counts Seq I: sequencing sample Seq I; for Counts Seq II: sequencing sample Seq II
Procedure, shortened: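 Peptide–mRNA fusions were made by in vitro translation with a customised PURE express kit. The kit lacked release factor 1 and methionine and was supplemented with […] initiator tRNA carrying N-chloroacetyl-d-tyrosine. Thioether macrocycles were formed, then enriched and amplified over iterative rounds on CD59-biotin immobilised on streptavidin beads. NGS read counts per sequence were recorded after the 6th selection round.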

Substance	Counts (raw counts for peptide sequence), Seq I	Counts (raw counts for peptide sequence), Seq II	Percentage of the pool, averaged across the two sequencing samples [%]	Percentage of the pool, Seq I [%]	Percentage of the pool, Seq II [%]	Percentage Seq I [%]	Percentage Seq II [%]	Percentage Average [%]	Counts Seq I	Counts Seq II
YIRGTQDTFLF	46	7	0.013	0.011	0.016	–	–	–	–	–
FVRGDLYSVFG	–	–	–	–	–	0.023	0.026	0.024	102	11
HCWVRGSRDYT	–	–	–	–	–	0.028	0.046	0.037	122	20
FARGDLYSVLG	71	5	0.014	0.016	0.012	–	–	–	–	–
IQSGSQSWSRG	–	–	–	–	–	0.037	0.035	0.036	164	15
PFAKRVAAQGGC	24	6	0.010	0.00549	0.014	–	–	–	–	–
YVFGNRSFARG	32	7	0.012	0.007	0.016	–	–	–	–	–
FIRGNSTSVLFLRQRQRQLGRGAE	–	–	–	–	–	0.060	0.072	0.066	264	31
SSYRELAHLSC	–	–	–	–	–	0.127	0.125	0.126	555	54
SAWGNRYIAYY	47	6	0.012	0.011	0.014	–	–	–	–	–
CFASRLTIDAV	–	–	–	–	–	0.032	0.028	0.030	140	12
CFAARLSNGDT	73	7	0.016	0.017	0.016	–	–	–	–	–
HVFGSRSFTRG	–	–	–	–	–	0.074	0.084	0.079	323	36
HVIGNRSFTRG	–	–	–	–	–	0.020	0.016	0.018	87	7
IARGDRNHQFY	–	–	–	–	–	0.296	0.251	0.273	1296	108
CYGGRTFIYSWS	46	8	0.015	0.011	0.019	–	–	–	–	–
ITRGSNIYAYG	79	6	0.016	0.018	0.014	–	–	–	–	–
VLCHRWHVGSHR	54	7	0.014	0.012	0.016	–	–	–	–	–

Substance	Counts (raw counts for peptide sequence), Seq I	Counts (raw counts for peptide sequence), Seq II	Percentage of the pool, averaged across the two sequencing samples [%]	Percentage of the pool, Seq I [%]	Percentage of the pool, Seq II [%]	Percentage Seq I [%]	Percentage Seq II [%]	Percentage Average [%]	Counts Seq I	Counts Seq II
TILGNKHYVRG	–	–	–	–	–	0.140	0.160	0.150	614	69
SVGGSRSWTRG	–	–	–	–	–	0.129	0.146	0.138	566	63
SAWGNRQIQY+	–	–	–	–	–	0.026	0.016	0.021	114	7
YARGNNASQFF	–	–	–	–	–	0.089	0.088	0.089	391	38
IALGDRTFSFG	–	–	–	–	–	0.366	0.334	0.350	1603	144
SAWGDRQIQYY	64	6	0.014	0.015	0.014	–	–	–	–	–
YCWVRGSRNYT	–	–	–	–	–	0.064	0.060	0.062	279	26
CFAFRLSQTSV	–	–	–	–	–	0.179	0.146	0.162	782	63
CFASRTLLNTSV	–	–	–	–	–	0.102	0.104	0.103	446	45
WILGSRWWTQT	–	–	–	–	–	0.032	0.030	0.031	139	13
CYGGRTFIYEWS	–	–	–	–	–	0.037	0.042	0.040	164	18
HVRGDAWTVLG	–	–	–	–	–	0.243	0.216	0.230	1065	93
WTRGSKDYARG	49	5	0.011	0.011	0.012	–	–	–	–	–
CFARRLSASLGT	–	–	–	–	–	0.033	0.021	0.027	145	9
CAWGNRHIAYY	–	–	–	–	–	0.183	0.195	0.189	800	84
WRDRFDQCVP	–	–	–	–	–	0.038	0.053	0.046	167	23
CKIDVYGRTWS	81	5	0.015	0.019	0.012	–	–	–	–	–
HAFGSRDITYY	–	–	–	–	–	0.246	0.272	0.259	1078	117
